Among the data in the supplement of paper PMC10567573 are protein stability index values, retold here.

B1: SMG5 (parent)
chain: TNPDLIIVCAQSSQSLWNRLSVLL
B2: FEM1B (parent)
chain: TLAALLLNRSESDIRYLLGYVSQQ
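Also: lentivirally expressed fusions sorted by FACS into six bins by GFP to DsRed ratio, PSI derived from sequencing read proportions per bin multiplied by bin number.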

The variants in the first data set derive from B1. In words: protein stability index of a GFP-peptide fusion (GPS, HEK-293T) (PSI 1-6); higher = more stable. To be noted: c terminus: a fixed tail appended.
In the case of TNPDPIIVCAQSSQSLWNRLSVLL [L5P], the protein stability index is 2.94.
On to TNPDKIIVCAQSSQSLWNRLSVLL [L5K], for which the protein stability index came out at 2.82.
For TNPDHIIVCAQSSQSLWNRLSVLL [L5H], the protein stability index stood at 1.29.
The same measure, in the same setting: as for TNPDGIIVCAQSSQSLWNRLSVLL [L5G], the figure is 1.54.
On the same count and under the same terms, the result for TNPDLIIVCAQSSQSLWNRLSVLQ [L24Q] reads 1.92.
Still for that read-out and setting: as for TNPDLIIVCAQSSQSVWNRLSVLL [L16V], the figure is 1.51; as for TNPDLIIVCAQSSQSPWNRLSVLL [L16P], 3.37; as for TNPDLIIVCAQSSQSLWNRLSVGL [L23G], 3.55.
Consider TNPDLIIVCVQSSQSLWNRLSVLL [A10V], for which the protein stability index was determined as 4.35.
On the same count and under the same terms, as for TNPDLIIECAQSSQSLWNRLSVLL [V8E], the figure is 1.56; as for TNPDLIIWCAQSSQSLWNRLSVLL [V8W], 2.69.
On to TNPDLIICCAQSSQSLWNRLSVLL [V8C], for which the protein stability index was 1.36.
On the same count and under the same terms, the result for TNPDLIIVCAQSSQSLWVRLSVLL [N18V] reads 1.91.
Same read-out and setting: as for TVPDLIIVCAQSSQSLWNRLSVLL [N2V], the figure is 2.06; as for TYPDLIIVCAQSSQSLWNRLSVLL [N2Y], 1.77.
Same read-out and setting: as for TNPDLIIVCAQSSQSLWNRLFVLL [S21F], the figure is 3.03.
In the case of TNPDLIIVCAQSSQSLWNRLNVLL [S21N], the protein stability index is 3.04.
Same read-out and setting: the result for TNPDLIIVCAQSSQSLFNRLSVLL [W17F] reads 3.58; that for TNPDLIIVCAQSSQSLWNRLSTLL [V22T], 2.99.
On the same count and under the same terms, as for TNPDLIIVCAQSSQSLWNRLSYLL [V22Y], the figure is 1.91; as for TNPDLIIVCAQSSQSLWNRLSALL [V22A], 2.
As to TNPDLIIVCAQSSQTLWNRLSVLL [S15T], the protein stability index was determined as 1.44.
Regarding TNPDLIIVCAQSSQMLWNRLSVLL [S15M], the protein stability index was found to be 3.28.
Consider TNPDLIIVCAQSSASLWNRLSVLL [Q14A], for which the protein stability index is 3.98.
As to TNPDLTIVCAQSSQSLWNRLSVLL [I6T], the protein stability index worked out at 1.79.
For the variant TNPDLIIVCAQSMQSLWNRLSVLL [S13M], the protein stability index is 2.
Still for that read-out and setting: the result for TNPDLIIVCAQSPQSLWNRLSVLL [S13P] reads 3.21.
As to TNPDLIIVCAQSTQSLWNRLSVLL [S13T], the protein stability index was found to be 3.23.
For TNPDLIAVCAQSSQSLWNRLSVLL [I7A], the protein stability index stood at 1.51.
The same measure, in the same setting: as for TNPDLIYVCAQSSQSLWNRLSVLL [I7Y], the figure is 1.65.

In a further data set the parent is B2. The data set is described as above. As to conditions: c terminus: a fixed tail appended.
With TLAALLLNRSESDIRYLLGGVSQQ [Y20G], the protein stability index was 2.25.
Same read-out and setting: as for TLAALLLNRSESDIRYLLGLVSQQ [Y20L], the figure is 2.66.
On the same count and under the same terms, as for TLAALLLNRSESDIRYLLGMVSQQ [Y20M], the figure is 4.22.
Still for that read-out and setting: the result for TLAALLLNRSESDIRYLLGKVSQQ [Y20K] reads 2.46; that for TLAALLLNRSESDIRYLLGEVSQQ [Y20E], 4.31.
TLAALLLNRSESDIRYLLGQVSQQ [Y20Q]: the protein stability index was 3.
As to TLAALLLNRSESDIRYLLGDVSQQ [Y20D], the protein stability index came to 3.08.
The same measure, in the same setting: as for TLAALLLNRSESDIRYLLGVVSQQ [Y20V], the figure is 3.32.
Still for that read-out and setting: the result for TLAALLLNRSESDIRYLLGTVSQQ [Y20T] reads 1.97; that for TLAALLLNRSESDIRYLLGHVSQQ [Y20H], 2.13; that for TLAALLLNRSESDIRYLLGRVSQQ [Y20R], 3.14.
Same read-out and setting: as for TLAALLLNRSESDIRYLLGCVSQQ [Y20C], the figure is 3.38; as for TLAALLLNRSESDIRYLLGPVSQQ [Y20P], 2.58; as for TLAALLLNRSESDIRYLLGNVSQQ [Y20N], 4.26.
For TLAALLLNRSESDIRYLLGIVSQQ [Y20I], the protein stability index amounted to 3.01.
In the case of TLAALLLNRSESDIRYLLGFVSQQ [Y20F], the protein stability index is 1.29.
As to TLAALLLNRSESDIRYLLGWVSQQ [Y20W], the protein stability index was found to be 2.52.
The same measure, in the same setting: the result for TLAALLLNRSESDIRYLLGAVSQQ [Y20A] reads 2.91; that for TLAALLLNRSESDIRYLKGYVSQQ [L18K], 3.43; that for TLAALLLNRSESDIRYLPGYVSQQ [L18P], 2.69.
For TLAALLLNRSESDIRYLCGYVSQQ [L18C], the protein stability index came out at 2.45.
Still for that read-out and setting: the result for TLAALLLNRSESDIRYLTGYVSQQ [L18T] reads 3.06; that for TLAALLLNRSESDIRYLFGYVSQQ [L18F], 2.34.
Take TLAALLLNRSESDIRYLSGYVSQQ [L18S]: the protein stability index was found to be 3.62.
On the same count and under the same terms, the result for TLAALLLNRSESDIRYLEGYVSQQ [L18E] reads 1.78; that for TLAALLLNRSESDIRYLIGYVSQQ [L18I], 2.8.
On the same count and under the same terms, as for TLAALLLNRSESDIRYLYGYVSQQ [L18Y], the figure is 3.1; as for TLAALLLNRSESDIRYLRGYVSQQ [L18R], 3.15.
The same measure, in the same setting: as for TLAALLLNRSESDIRYLNGYVSQQ [L18N], the figure is 1.73.
In the case of TLAALLLNRSESDIRYLHGYVSQQ [L18H], the protein stability index stood at 2.17.
In the case of TLAALLLNRSESDIRYLDGYVSQQ [L18D], the protein stability index was found to be 1.64.
In the case of TLAALLLNRSESDIRYLVGYVSQQ [L18V], the protein stability index was 1.67.
As to TLAALLLNRSESDIRYLWGYVSQQ [L18W], the protein stability index worked out at 3.01.
As to TLAALLLNRSESDIRYLAGYVSQQ [L18A], the protein stability index came out at 1.98.
Still for that read-out and setting: the result for TLAALLLNRSESDIRYLQGYVSQQ [L18Q] reads 3.66; that for TLAALLLNRSESDIRYLMGYVSQQ [L18M], 1.94; that for TLAALLLNRSESDIRYLLGYASQQ [V21A], 3.97.
As for TLAALLLNRSESDIRYLLGYRSQQ [V21R], the protein stability index turned out to be 1.3.
Turning to TLAALLLNRSESDIRYLLGYMSQQ [V21M], the protein stability index amounted to 2.17.
For the variant TLAALLLNRSESDIRYLLGYYSQQ [V21Y], the protein stability index is 2.32.
On to TLAALLLNRSESDIRYLLGYISQQ [V21I], for which the protein stability index is 2.41.
Still for that read-out and setting: as for TLAALLLNRSESDIRYLLGYGSQQ [V21G], the figure is 1.62.
For the variant TLAALLLNRSESDIRYLLGYLSQQ [V21L], the protein stability index was 3.44.
The same measure, in the same setting: as for TLAALLLNRSESDIRYLLGYPSQQ [V21P], the figure is 2.42; as for TLAALLLNRSESDIRYLLGYFSQQ [V21F], 2.23.
On the same count and under the same terms, as for TLAALLLNRSESDIRYLLGYESQQ [V21E], the figure is 2.03; as for TLAALLLNRSESDIRYLLGYDSQQ [V21D], 2.86.
For the variant TLAALLLNRSESDIRYLLGYNSQQ [V21N], the protein stability index worked out at 3.55.
On the same count and under the same terms, as for TLAALLLNRSESDIRYLLGYCSQQ [V21C], the figure is 3.21; as for TLAALLLNRSESDIRYLLGYSSQQ [V21S], 3.12; as for TLAALLLNRSESDIRYLLGYQSQQ [V21Q], 1.53.
The same measure, in the same setting: as for TLAALLLNRSESDIRYLLGYTSQQ [V21T], the figure is 1.82.
As for TLAALLLNRSESDIRYLLGYKSQQ [V21K], the protein stability index was 1.97.
On the same count and under the same terms, as for TLAALLLNRSESDIRYLLGYWSQQ [V21W], the figure is 3.68.
TLAALLLNRSESDIRYLLGYVSQW [Q24W]: the protein stability index came out at 2.52.
As for TLAALLLNRSESDIRYLLGYVSQC [Q24C], the protein stability index is 3.34.
Same read-out and setting: the result for TLAALLLNRSESDIRYLLGYVSQG [Q24G] reads 2.68.
As to TLAALLLNRSESDIRYLLGYVSQI [Q24I], the protein stability index was 3.41.
With TLAALLLNRSESDIRYLLGYVSQE [Q24E], the protein stability index is 2.39.
For the variant TLAALLLNRSESDIRYLLGYVSQH [Q24H], the protein stability index came to 2.75.
Same read-out and setting: the result for TLAALLLNRSESDIRYLLGYVSQS [Q24S] reads 2.18; that for TLAALLLNRSESDIRYLLGYVSQF [Q24F], 2.26.
On to TLAALLLNRSESDIRYLLGYVSQM [Q24M], for which the protein stability index was determined as 1.61.
The same measure, in the same setting: the result for TLAALLLNRSESDIRYLLGYVSQP [Q24P] reads 2.31.
